{
  "source": "patent US8992886B2",
  "about": "“Cyclic peptide analogues for non-invasive imaging of pancreatic beta-cells” (Board of Regents, the University of Texas System, priority 2009, dated 2015)",
  "key": {"GLP-1R [1]": {"target": "T1, GLP-1R (Homo sapiens, UniProt P43220)", "conditions": "DPP-IV degradation fragment; cited from earlier work"}, "GLP-1R [2]": {"target": "T1, GLP-1R", "assay": "cAMP formation by radioimmunoassay in transfected HEK293 cells", "format": "cell-based", "parameters": "expressed in transfected cells; host or cells: HEK293", "conditions": "compared with GLP-1", "experimental": "Twelve cyclic GLP-1 analogues containing lactam bridges in various regions (from the N- to C-terminal regions) were designed and synthesized. The cyclic peptides were prepared by following standard solid-phase peptide synthesis protocol with N-Fmoc/^tBu protecting group strategy. The side chains of a lysine and a glutamic acid that would form a lactam bridge were protected with allyl groups which were selectively removed by using Pd^0 catalyst and an allyl scavenger like N,N-dimethylbarbituric acid (29). The released free amine and carboxylic acid were coupled on resin using HBTU or BOP to form a cyclic peptide. […] In addition, cAMP formation by the peptides was determined by radioimmunoassay using the transfected HEK293 cells to examine agonistic activity. […] (SEQ ID No: 5) and […] R (SEQ ID No: 6)."}, "[3]": {"assay": "Tissue distribution of ^125I-labeled peptide in normal Sprague-Dawley rats", "format": "in vivo", "source_text": "(§1) This presumably resulted from the degradation of the peptide by DPP-IV since it has Ala at position 8. In order to overcome this problem, we have replaced the L-Ala with a D-Ala. Furthermore, due to high stomach uptake likely resulting from in vivo de-iodination of the ^125I-labeled peptide, a conventional metal chelator. […] The purified conjugates were labeled with either ^64Cu or ^111In in high radiochemical yields."}, "[4]": {"test_system": "freshly isolated rat islets", "assay": "Displacement binding assay of ^125I-labeled peptide on isolated islets", "conditions": "^125I-labeled (at Tyr^19)", "source_text": "as §1"}},
  "note": "Ends that are not written are not given here.",
  "data": [
    {"substance": "GLP-1(9-36) amide", "values": [
      {"measurement": "receptor affinity and biological activity", "setting": "GLP-1R [1]", "result": "lost receptor affinity and biological activity nearly completely"}
    ]},
    {"substance": "HAEGTFTSDESSYKEGQAAKEFIAWLVKGR (lactam (positions not given here); ends not checked; also: lactam bridge, positions not given here) [SEQ ID No: 5, cyclic GLP-1 analogue with a lactam bridge]", "values": [
      {"measurement": "receptor activation (cAMP formation)", "setting": "GLP-1R [2]", "result": "comparable or improved"},
      {"measurement": "accumulation in kidneys and stomach", "setting": "[3]", "result": "high accumulation in kidneys and stomach"},
      {"measurement": "pancreas uptake", "setting": "[3]", "result": "no significant pancreas uptake"},
      {"measurement": "specific binding to isolated islets", "setting": "[4]", "result": "appreciable specific binding"}
    ]},
    {"substance": "HAEGTFTSDVSSYLEGQAAKEFIEWLVKG R (chain 1 HAEGTFTSDVSSYLEGQAAKEFIEWLVKGR; chain 2 HAEGTFTSDVSSYLEGQAAKEFIEWLVKGR; lactam (positions not given here); ends not checked; also: lactam bridge, positions not given here) [SEQ ID No: 6, cyclic GLP-1 analogue with a lactam bridge]", "values": [
      {"measurement": "receptor activation (cAMP formation)", "setting": "GLP-1R [2]", "result": "comparable or improved"}
    ]}
  ]
}
